Measured values: publication PMC2794548, “Real-Time Imaging and Quantification of Amyloid-β Peptide Aggregates by Novel Quantum-Dot Nanoprobes” (PLoS ONE, 2009)

Legend:
[1] = Kinetic analysis of Aβ40 and Aβ42 aggregations by SDS-PAGE; assay type: physicochemical, Human; details: 50 µM peptide in PBS without SDS, 37°C
Procedure: These Aβ solutions were diluted at 50 µM in PBS with or without 1 mM SDS, and 5 µl of aliquots were incubated for various time periods at 37°C. The samples were mixed with sample buffer (final concentration: 50 mM Tris-HCl (pH 6.8), 2% SDS, 0.1% bromophenol blue, and 10% glycerol) and immediately electrophoresed using 16.5% Tris-Tricine gels or 16% Tris-Glycine gels. These gels were stained with Coomassie brilliant blue.
After the incubation, these samples were electrophoresed using 16.5% Tris-Tricine (a and c) and 16% Tris-Glycine gels (b and d). […] [1] Schagger H (2006) Tricine-SDS-PAGE. Nat Protoc 1: 16–22. Laemmli UK (1970) Cleavage of structural proteins during the assembly of the head of bacteriophage T4. Nature 227: 680–685. (1.27 MB TIF) Click here for additional data file.

[2] = 10–35 µM Aβ42 in phosphate buffer (pH 7.5 or pH 7.4); cited from earlier work
[3] = 4D imaging of Aβ aggregation by swept-field confocal microscopy; assay type: physicochemical, Human
Procedure: (a) 4D imaging of Aβ aggregation. […] (b) Time-course of Aβ aggregation. The volumes of Aβ aggregates measured from three 4D experiments (red, blue, and green). The total volume of the observed space is 1.9×10^6 µm^3 (138×138×100 µm).
To remove any aggregates, the mixtures were centrifuged at 10,000×g for 1 min at 4°C. The mixtures (50 µl) were put in microcentrifuge tubes or 96-well glass bottom plates (MatTek). The samples in microcentrifuge tubes were incubated for various time periods at 37°C in an air incubator, and observed by wide-field fluorescence microscopy or electron microscopy. The samples in 96-well glass bottom plates were incubated at 37°C in 5% CO2 in a culture chamber (LiveCell™, Pathology Devices), and directly observed by wide-field fluorescence microscopy or swept-field laser-scanning confocal microscopy [QDAβ: Excitation: 488 nm at 15% power; Emission filter: Chroma Quad Filter (#C68208) for FITC].
QD was excited by an argon laser, and Lysotracker and Mitotracker were excited by an argon/krypton laser.

Aβ42 = Aβ42 (Homo sapiens, UniProt P05067); assay: Imaging of fibril formation: coaggregation of QDAβ with intact Aβ42, wide-field fluorescence microscopy; assay type: physicochemical; details: 0.1% QDAβ(6)-containing 50 µM Aβ42, 1 day on ice
Chain of Aβ42 (P05067 672-713 limits assumed): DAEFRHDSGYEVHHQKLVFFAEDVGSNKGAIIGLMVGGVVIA
Source text: (b) Fluorescence intensities of the aggregates in (a). Fluorescence intensities measured from 20 randomly selected fields (100×100 pixel: 8.6×8.6 μm) containing the aggregates are shown as relative % intensity against QDAβ(6) group. *** denotes P<0.001 for QDAβ (6)- versus QDAβ (1)- or QDAβ (0)-samples and ## denotes 0.001<P<0.01 for QDAβ (1)- versus QDAβ (0) samples. Error bars indicate SD (n = 20). […], spread between glass slides and cover slips, and observed by regular microscopy using a 100x objective lens with QD filter set (left micrograph) and […] (right three micrographs). […] The right three micrographs are magnified and brightened micrographs. The top right micrograph is the boxed area in the left micrograph. […] To remove any aggregates, the mixtures were centrifuged at 10,000×g for 1 min at 4°C. The mixtures (50 μl) were put in microcentrifuge tubes or 96-well glass bottom plates (MatTek). […] Supplementary file pone.0008492.s006.tif: Figure S4 Dose- and time-dependent coaggregation. […] (7.12 MB TIF) Click here for additional data file. Supplementary file pone.0008492.s007.tif: Figure S5 Temperature-dependent Aβ aggregation. […] (1.67 MB TIF) Click here for additional data file.

[4] = 0.1% QDAβ(6)-containing 100 µM Aβ42, 37°C, imaged every 30 min over 20 h, three 4D experiments

Row | Substance | oligomer formation after 5 days ([1]; SDS-PAGE (Fig. S1c, d)) | lag time of ThT binding [2] | time at which ThT binding reached a plateau [2] | lag time of aggregation [3, 4] | time at which aggregation reached a plateau [3, 4] | density of stacked-Aβ aggregates on the glass bottom in a steady state ([3]; estimated from 4D imaging data, 100 µM Aβ42 with 0.1% QDAβ(6)) | time to formation of trimeric and tetrameric species from the start of incubation ([1]; SDS-PAGE, Coomassie (Fig. S1a)) | aggregation after incubation on ice (Aβ42)
1 | Aβ40: Human amyloid peptide Aβ40 (Biosource) | did not form oligomers | – | – | – | – | – | – | –
2 | Aβ42: Human amyloid peptide Aβ42 (Biosource) | – | several minutes | 1 to 2 h | approximately 1.5 h | around 12 h | 32 ± 6 mg/mL | ≤ 0.3 h | did not observe aggregation
